Measurements from patent US20260266848A1, “COMPOSITIONS AND METHODS FOR DIAGNOSING AND TREATING DYSTONIA” (Duke University, priority 2023, published 2026).

B1: Lnpep (protein, UniProt Q8C129 1-1025, looked up)
Leucyl-cystinyl aminopeptidase: MESFTNDRLQLPRNMIENSMFEEEPDVVDLAKEPCLHPLEPDEVEYEPRGSRLLVRGLGEHEMDEDEEDYESSAKLLGMSFMNRSSGLRNSAAGYRQSPDGTCSLPSARTLVICVFVIVVAVSVIMVIYLLPRCTFTKEGCHKTNQSAELIQPVATNGKVFPWAQIRLPTAIIPLCYELSLHPNLTSMTFRGSVTISLQALQDTRDIILHSTGHNISRVTFMSAVSSQEKQVEILEYPYHEQIAVVAPEPLLTGHNYTLKIEYSANISNSYYGFYGITYTDKSNEKKYFAATQFEPLAARSAFPCFDEPAFKATFIIKITRNEHHTALSNMPKKSSVPAEEGLIQDEFSESVKMSTYLVAFIVGEMRNLSQDVNGTLVSVYAVPEKIGQVHHALDTTIKLLEFYQTYFEIQYPLKKLDLVAIPDFEAGAMENWGLLTFREETLLYDNATSSVADRKLVTKIIAHELAHQWFGNLVTMQWWNDLWLNEGFATFMEYFSVEKIFKELNSYEDFLDARFKTMRKDSLNSSHPISSSVQSSEQIEEMFDSLSYFKGASLLLMLKSYLSEDVFRHAVILYLHNHSYAAIQSDDLWDSFNEVTDKTLDVKKMMKTWTLQKGFPLVTVQRKGTELLLQQERFFLRMQPESQPSDTSHLWHIPISYVTDGRNYSEYRSVSLLDKKSDVINLTEQVQWVKVNSNMTGYYIVHYAHDDWTALINQLKRNPYVLSDKDRANLINNIFELAGLGKVPLRMAFDLIDYLKNETHTAPITEALFQTNLIYNLLEKLGHMDLSSRLVARVHKLLQNQIQQQTWTDEGTPSMRELRSALLEFACAHSLENCTTMATNLFDSWMASNGTQSLPTDVMVTVFKVGARTEKGWLFLFSMYSSMGSEAEKNKILEALASSEDVHKLYWLMKSSLDGDIIRTQKLSLIIRTVGRHFPGHLLAWDFVKENWNKLVHKFHLGSYTIQSIVAGSTHLFSTKTHLSEVQAFFENQSEATLKLRCVQEALEVIQLNIQWMVRNLKTLSQWL
B2: Canx (protein, UniProt P35564 21-591, looked up)
Calnexin: HDGHDDDAIDIEDDLDDVIEEVEDSKSKSDASTPPSPKVTYKAPVPTGEVYFADSFDRGSLSGWILSKAKKDDTDDEIAKYDGKWEVDEMKETKLPGDKGLVLMSRAKHHAISAKLNKPFLFDTKPLIVQYEVNFQNGIECGGAYVKLLSKTAELSLDQFHDKTPYTIMFGPDKCGEDYKLHFIFRHKNPKTGVYEEKHAKRPDADLKTYFTDKKTHLYTLILNPDNSFEILVDQSVVNSGNLLNDMTPPVNPSREIEDPEDRKPEDWDERPKIADPDAVKPDDWDEDAPSKIPDEEATKPEGWLDDEPEYIPDPDAEKPEDWDEDMDGEWEAPQIANPKCESAPGCGVWQRPMIDNPNYKGKWKPPMIDNPNYQGIWKPRKIPNPDFFEDLEPFKMTPFSAIGLELWSMTSDIFFDNFIISGDRRVVDDWANDGWGLKKAADGAAEPGVVLQMLEAAEERPWLWVVYILTVALPVFLVILFCCSGKKQSNAMEYKKTDAPQPDVKDEEGKEEEKNKRDEEEEEEKLEEKQKSDAEEDGVTGSQDEEDSKPKAEEDEILNRSPRNRKPRRE
B3: Cul5 (protein, UniProt Q9D5V5 1-780, looked up)
Cullin-5: MATSNLLKNKGSLQFEDKWDFMHPIVLKLLRQESVTKQQWFDLFSDVHAVCLWDDKGSSKIHQALKEDILEFIKQAQARVLSHQDDTALLKAYIVEWRKFFTQCDILPKPFCQLEVTLLGKQSSNKKSNMEDSIVRKLMLDTWNESIFSNIKNRLQDSAMKLVHAERLGEAFDSQLVIGVRESYVNLCSNPEDKLQIYRDNFEKAYLDSTERFYRTQAPSYLQQNGVQNYMKYADAKLKEEEKRALRYLETRRECNSVEALMECCVNALVTSFKETILAECQGMIKRNETEKLHLMFSLMDKVPNGIEPMLKDLEEHIISAGLADMVAAAETITTDSEKYVEQLLTLFNRFSKLVKEAFQDDPRFLTARDKAYKAVVNDATIFKLELPLKQKGVGLKTQPESKCPELLANYCDMLLRKTPLSKKLTSEEIEAKLKEVLLVLKYVQNKDVFMRYHKAHLTRRLILDISADSEIEENMVEWLREVGMPADYVNKLARMFQDIKVSEDLNQAFKEMHKNNKLALPADSVNIKILNAGAWSRSSEKVFVSLPTELEDLIPEVEEFYKKNHSGRKLHWHHLMSNGIITFKNEVGQYDLEVTTFQLAVLFAWNQRPREKISFENLKLATELPDAELRRTLWSLVAFPKLKRQVLLYDPQVNSPKDFTEGTLFSVNQDFSLIKNAKVQKRGKINLIGRLQLTTERMREEENEGIVQLRILRTQEAIIQIMKMRKKISNAQLQTELVEILKNMFLPQKKMIKEQMEWLIEHRYIRRDEADINTFIYMA
B4: Psmd8 (protein, UniProt Q9CX56 1-353, looked up)
26S proteasome non-ATPase …: MFIKGRAAKTPRGEPRRSSRGGRKLAVVAPPPVLGSTSRPHFRRESIARRRCRKSGRRLAASRKMAATAATVNGSTTVSSSGPAATSVGILQAAAGMYEQLKDEWNRKNPNLSKCGEELGRLKLVLLELNFLPTTGTKLTKQQLILARDILEIGAQWSILCKDIPSFERYMAQLKCYYFDYKEQLPESAYMHQLLGLNLLFLLSQNRVAEFHTELERLPAKDIQTNVYIKHPVSLEQYLMEGSYNKVFLAKGNIPAESYTFFIDILLDTIRDEIAGCIEKAYEKILFAEATRILFFSTPKKMTDYAKKRGWVLGPNNYYSFASQQQKPEDSTIPSTELAKQVIEYARQLEMIV
B5: Kpna4 (protein, UniProt O35343 2-521, looked up)
Importin subunit alpha-3: ADNEKLDNQRLKNFKNKGRDLETMRRQRNEVVVELRKNKRDEHLLKRRNVPQEDICEDSDIDGDYRVQNTSLEAIVQNASSDNQGIQLSAVQAARKLLSSDRNPPIDDLIKSGILPILVHCLERDDNPSLQFEAAWALTNIASGTSEQTQAVVQSNAVPLFLRLLHSPHQNVCEQAVWALGNIIGDGPQCRDYVISLGVVKPLLSFISPSIPITFLRNVTWVMVNLCRHKDPPPPMETIQEILPALCVLIHHTDVNILVDTVWALSYLTDAGNEQIQMVIDSGIVPHLVPLLSHQEVKVQTAALRAVGNIVTGTDEQTQVVLNCDALSHFPALLTHPKEKINKEAVWFLSNITAGNQQQVQAVIDANLVPMIIHLLDKGDFGTQKEAAWAISNLTISGRKDQVAYLIQQNVIPPFCNLLTVKDAQVVQVVLDGLSNILKMAEDQAETIANLIEECGGLEKIEQLQNHENEDIYKLAYEIIDQFFSSDDIDEDPSLVPESVQGGTFGFNSSTNVPTEGFQF
B6: Dctn2 (protein, UniProt Q99KJ8 2-402, looked up)
Dynactin subunit 2: ADPKYADLPGIARNEPDVYETSDLPEDDQAEFDAEELSSTSVEHIIVNPNAAYDKFKDKRVGTKGLDFSDRIGKTKRTGYESGDYEMLGEGLGVKETPQQKYQRLLHEVQELTTEVEKIKTTVKESATEEKLTPVVLAKQLAALKQQLVASHLEKLLGPDAAINLADPDGALAKRLLLQLEATKSSKGSSGGKATAGAPPDSSLVTYELHSRPEQDKFSQAAKVAELEKRLTELEATVRCDQDAQNPLSAGLQGACLMETVELLQAKVSALDLAVLDQVEARLQSVLGKVNEIAKHKASVEDADTQNKVHQLYETIQRWSPVASTLPELVQRLVTIKQLHEQAMQFGQLLTHLDTTQQMMASSLKDNTALLTQVQTTMRENLATVEGNFASIDARMKRLGK
B7: Serpinf1 (protein, UniProt P97298 20-417, looked up)
Pigment epithelium-derived …: QNVPSSSEGSPVPDSTGEPVEEEDPFFKVPVNKLAAAVSNFGYDLYRLRSSASPTGNVLLSPLSVATALSALSLGAEHRTESVIHRALYYDLITNPDIHSTYKELLASVTAPEKNLKSASRIVFERKLRVKSSFVAPLEKSYGTRPRILTGNPRVDLQEINNWVQAQMKGKIARSTREMPSALSILLLGVAYFKGQWVTKFDSRKTTLQDFHLDEDRTVRVPMMSDPKAILRYGLDSDLNCKIAQLPLTGSMSIIFFLPLTVTQNLTMIEESLTSEFIHDIDRELKTIQAVLTVPKLKLSFEGELTKSLQDMKLQSLFESPDFSKITGKPVKLTQVEHRAAFEWNEEGAGSSPSPGLQPVRLTFPLDYHLNQPFLFVLRDTDTGALLFIGRILDPSST
B8: Idua (protein, UniProt P35475 28-653, looked up)
Alpha-L-iduronidase: APHLVHVDAARALWPLRRFWRSTGFCPPLPHSQADQYVLSWDQQLNLAYVGAVPHRGIKQVRTHWLLELVTTRGSTGRGLSYNFTHLDGYLDLLRENQLLPGFELMGSASGHFTDFEDKQQVFEWKDLVSSLARRYIGRYGLAHVSKWNFETWNEPDHHDFDNVSMTMQGFLNYYDACSEGLRAASPALRLGGPGDSFHTPPRSPLSWGLLRHCHDGTNFFTGEAGVRLDYISLHRKGARSSISILEQEKVVAQQIRQLFPKFADTPIYNDEADPLVGWSLPQPWRADVTYAAMVVKVIAQHQNLLLANTTSAFPYALLSNDNAFLSYHPHPFAQRTLTARFQVNNTRPPHVQLLRKPVLTAMGLLALLDEEQLWAEVSQAGTVLDSNHTVGVLASAHRPQGPADAWRAAVLIYASDDTRAHPNRSVAVTLRLRGVPPGPGLVYVTRYLDNGLCSPDGEWRRLGRPVFPTAEQFRRMRAAEDPVAAAPRPLPAGGRLTLRPALRLPSLLLVHVCARPEKPPGQVTRLRALPLTQGQLVLVWSDEHVGSKCLWTYEIQFSQDGKAYTPVSRKPSTFNLFVFSPDTGAVSGSYRVRALDYWARPGPFSDPVPYLEVPVPRGPPSPGNP

Experiments:
WT MEF EVs = assay: Quantitative LC-MS/MS proteomics of EVs from ISRIB-treated WT MEF cultures; assay type: cell-based, mouse; set-up: key to ISRIB and DYT Parallel Direction / ISRIB and DYT Parallel Direction, Ctdsp1 / ISRIB and DYT Parallel Direction, Pcdh19 / ISRIB and DYT Parallel Direction, Tspan7 / ISRIB and DYT Parallel Direction, Myo1e / ISRIB and DYT Parallel Direction, Plpp3 / ISRIB and DYT Parallel Direction, Sh3bp4 / ISRIB and DYT Parallel Direction, Dnajc7 / ISRIB and DYT Parallel Direction, Drg1 / ISRIB and DYT Parallel Direction, Maea: YES = protein abundance effect similar to DYT/WT; conditions: EV protein abundance; for WT + ISRIB/WT Cohen's d: ISRIB-treated WT vs WT; for ISRIB and DYT Parallel Direction: WT + ISRIB vs WT, direction compared with DYT/WT
DYT-TOR1A MEF EVs = assay: Quantitative LC-MS/MS proteomics of EVs from drug-treated DYT-TOR1A MEF cultures (ritonavir, salubrinal); assay type: cell-based, mouse; set-up: key to RTV Corrective Direction / RTV Corrective Direction, Grwd1 / RTV Corrective Direction, Srrm2 / RTV Corrective Direction, Rbm17 / RTV Corrective Direction, Dcaf8 / RTV Corrective Direction, Edil3 / RTV Corrective Direction, Timp3 / RTV Corrective Direction, Heatr3 / RTV Corrective Direction, Brd4 / RTV Corrective Direction, P3h4 / RTV Corrective Direction, Pacsin3 / RTV Corrective Direction, Naa50 / RTV Corrective Direction, Lpar6 / RTV Corrective Direction, Ndrg1 / RTV Corrective Direction, Kntc1 / RTV Corrective Direction, Cdk11b / RTV Corrective Direction, Sumo1 / RTV Corrective Direction, Lsm4 / RTV Corrective Direction, Hmga2 / RTV Corrective Direction, Cstf1 / RTV Corrective Direction, Tes / RTV Corrective Direction, Sbno1 / RTV Corrective Direction, Unc119b / RTV Corrective Direction, Cfdp1 / RTV Corrective Direction, Sec61b: YES = protein abundance effect opposite to DYT/WT; conditions: EV protein abundance; for DYT + RTV/DYT Cohen's d: ritonavir (RTV)-treated DYT vs DYT; for RTV Corrective Direction: DYT + RTV (ritonavir) vs DYT, direction compared with DYT/WT

Molecule	WT + ISRIB/WT Cohen's d (WT MEF EVs)	ISRIB and DYT Parallel Direction (WT MEF EVs)	DYT + RTV/DYT Cohen's d (DYT-TOR1A MEF EVs)	RTV Corrective Direction (DYT-TOR1A MEF EVs)
B1	−1.24	YES	−0.39	
B2	0.64		−0.16	
B3	−3.39	YES	13.04	YES
B4	−3.31	YES	23.45	YES
B5	−3.18	YES	2.38	YES
B6	−0.53	YES	5.51	YES
B7	−1.83		1.47	
B8	0.52		−0.08	
